Measurements taken from US7608691B2, “Antibodies against IL-16 antagonist peptides” (Trustees of Boston University, priority 1999, dated 2009).

T1: IL-16 (Homo sapiens, UniProt Q14005)
T1 construct: Recombinant human IL-16 corresponding to the 121 C-terminal amino biologically active cytokine cleaved from natural pro-IL-16; polyhistidine (pET-30 LIC) (N, cleaved yes); made in house; host or cells: E. coli
T1 sequence (Q14005 1212-1332): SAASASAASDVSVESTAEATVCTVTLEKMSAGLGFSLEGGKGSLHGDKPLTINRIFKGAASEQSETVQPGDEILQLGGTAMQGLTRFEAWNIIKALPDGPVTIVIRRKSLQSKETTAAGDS

T2: murine IL-16 (Mus musculus, UniProt O54824)
T2 sequence (O54824 1205-1322 T1262D/E1263R/Q1264T limits assumed): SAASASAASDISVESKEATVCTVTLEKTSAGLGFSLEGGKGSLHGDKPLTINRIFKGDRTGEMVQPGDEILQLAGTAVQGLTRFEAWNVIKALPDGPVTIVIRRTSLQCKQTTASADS

T3: natural and recombinant human IL-16 (Homo sapiens, UniProt Q14005)
T3 sequence (Q14005 1212-1332 limits assumed): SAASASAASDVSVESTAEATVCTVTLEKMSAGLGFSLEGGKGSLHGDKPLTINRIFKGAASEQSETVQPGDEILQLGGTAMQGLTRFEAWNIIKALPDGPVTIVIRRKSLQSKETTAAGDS


Legend:
[1] = target: T1, IL-16; assay: Modified Boyden chamber chemotaxis assay: inhibition of IL-16-stimulated T lymphocyte motility; format: cell-based; conditions: human T lymphocytes; rIL-16 10^-9, 10^-10 or 10^-11 M; peptide 10 μg/ml; 4 h
Protocol: (§1) The mononuclear cell layer was washed with medium 199 (M. A. Bioproducts, Walkersville, Md.) supplemented with 0.4% bovine serum albumin, 25 mM HEPES buffer, and 100 U/ml of penicillin and 100 μg/ml streptomycin (M199-HPS). Samples were enriched for T lymphocytes by nylon wool adherence as described (Julius, et al., Eur. J. Immunol. 3:645, 1973). The nonadherent cells were >95% CD3^+ as determined by flow cytometry.
Recombinant human IL-16 corresponding to the 121 C-terminal amino biologically active cytokine cleaved from natural pro-IL-16 was produced in E. coli as a polyhistidine fusion protein using the expression vector pET-30 LIC (Novagen, Madison, Wis.). Following lysis of transformed bacteria, the protein was purified by metal chelation chromatography and the N-terminal polyhistidine tag was removed by cleavage with enterokinase.
A series of oligopeptides derived from the 16 C-terminal of human IL-16 residues were prepared (FIG. 1) and tested for their ability to […] the T lymphocyte motility using a modified Boyden chemotaxis chamber assay.
Human T lymphocytes were loaded in the upper wells, and rIL-16 at concentrations of 10^−9 M, 10^−10 M or 10^−11 M was loaded in the lower wells, in the presence or absence of two 8-mer peptides corresponding to amino acids Arg^106 to Lys^113 (SEQ ID NO:24), and Glu^114 to Ser^121 (SEQ ID NO:46) of IL-16. […] To further define the residues mediating inhibition, the eight residue sequence from Arg^106 to Lys^113 was divided into RRKS (SEQ ID NO:2) and LQSK (SEQ ID NO:48).

[2] = target: HIV-1 gp120 (strain HIV-13B) (Human immunodeficiency virus type 1 group M subtype B, UniProt P04578); conditions: gp120 0.5, 1.0, 5.0 μg/ml; peptide 10 μg/ml
Protocol: (§2) Cells were suspended (5×10^6 cells/ml) in M199-HPS and loaded into the upper wells, separated by an 8 μm pore size nitrocellulose membrane from lower wells. […] After a 4 h incubation at 37° C., the membranes were removed and stained with hematoxylin, dehydrated by sequential washes in ethanol and propanol, then washed in xylene to clarify the filter for cell counting by light microscopy. Cell migration was quantified by counting the number of cells in the filter that had moved beyond a depth of 50 μm in five separate fields in duplicate wells for all conditions. Cell counts were compared with unstimulated control cell migration which was normalized to 100%. Results are expressed as mean % control migration and the data analyzed for statistical significance (P<0.05) by Student=s t test.

[3] = system: Leu 3a mAb; assay: Chemotaxis assay: T cell migration in response to anti-CD4 mAb Leu 3a with peptide; format: cell-based; conditions: Leu 3a 0.5, 1.0, 5.0 μg/ml; peptide 10 μg/ml
Protocol: as §2

[4] = target: T2, murine IL-16; conditions: cited from earlier work
[5] = target: T3, natural and recombinant human IL-16; conditions: cited from earlier work
[6] = system: human T lymphocytes; assay: Chemotaxis assay: chemoattractant activity of mutated rIL-16; format: cell-based; conditions: 10^-8 to 10^-11 M
Protocol: as §1
The native IL-16 expression vector (pET-30/L-16^121) was used as a template for PCR mutagenesis to create four recombinant IL-16 (rIL-16) mutant constructs with progressive four amino acid deletions at the C-terminus (C-4 to C-16), as well as deletions of 12 or 22 N-terminal residues. Two double deletion constructs lacking the first 12 or 22 N-terminal residues as well as the last 16 C-terminal residues of IL-16 were also produced. Point mutations in C-terminal residues of rIL-16 were generated by site-directed mutagenesis using the Stratagene Quick Change Kit (Stratagene, La Jolla, Calif.) according to the manufacturer=s specifications. The point mutations included alanine substitution for Arg^106, Arg^107, and Arg^106 plus Arg^107.
IL-16 mutant constructs were created with progressive deletions of 4 C-terminal amino acids from C-4 through C-16 (FIG. 4). The C-12 construct terminates at Ser^108, retaining the RRKS motif. The C-16 construct terminates at Ile^105, deleting RRKS and succeeding downstream residues. These mutant IL-16 molecules were tested in chemotaxis assays.

[7] = system: Mixed Lymphocyte Reaction; assay: Inhibition of the one way mixed lymphocyte reaction (MLR); format: cell-based, human; conditions: for capacity to inhibit the MLR: responder T lymphocytes pre-treated, 10^-8 to 10^-11 M
Protocol: Stimulator cells for mixed lymphocyte reactions were prepared by incubating PBMC (10^6/ml) with 25 μg/ml mitomycin C for 30 min. The cells were then washed four times with RPMI 1640 medium supplemented with 25 mM HEPES buffer, 100 U/ml penicillin, and 100 μg/ml streptomycin (RPMI 1640-HPS), then resuspended in RPMI 1640-HPS supplemented with 10% fetal bovine serum (complete medium) at 10^6 cells/ml. Responder cells were prepared from an unrelated donor, suspended in complete medium at 10^6 cells/ml, and pre-incubated (1 h, 37° C.) with control buffer, or with rIL-16 or mutated rIL-16 constructs (10^−9 M to 10^−11 M). Stimulator cells were then added (1:1) and the cell mixtures were transferred in quadruplicate to 96-well round-bottom plates. Cell cultures were pulsed with [^3H] thymidine on day 5, harvested with a Titertek cell harvester, and counted in a Becton Dickinson scintillation counter on day 6. Results are expressed as mean % cpm above background. SEM.
To determine whether other biological activities of IL-16 are mediated by the C-terminal domain, the native and mutated rIL-16 constructs were tested for their capacity of inhibiting the one way MLR. Responder T lymphocytes were pre-treated with rIL-16 or control buffer, then cultured with mitomycin C-treated stimulator PBMC from an unrelated donor. Pre-treatment with 10^−8 M native rIL-16 reduced thymidine incorporation on day 6 by nearly 70%, compared with untreated cells.

Row | Molecule | inhibition of IL-16-stimulated T cell migration [1] | chemoattractant activity of mutated rIL-16 [6] | other results
1 | ETTAAGDS [SEQ ID NO:46] | only the Arg^106 to Lys^113 peptide (SEQ ID NO:24) inhibited IL-16 | – | –
2 | LQSK | Only RRKS (SEQ ID NO:2) inhibited IL-16 chemoattractant activity | – | –
3 | RRAS | inhibited IL-16 as effectively as the native RRKS | – | –
4 | RRKA | inhibited IL-16 as effectively as the native RRKS | – | –
5 | RRKS | inhibited IL-16 chemoattractant activity | – | blocking of cell migration in response to HIV-1 gp120 [2]: not blocked; blocking of cell migration in response to divalent anti-CD4 mAb Leu 3a [3]: not blocked
6 | RRKSLQ | inhibited IL-16-stimulated T cell migration | – | –
7 | RRKSLQSK [SEQ ID NO:24] | inhibited IL-16 | – | –
8 | RRKSLQSKETTAAGDS [Arg106 to Ser121, synthetic oligopeptide corresponding to the 16 C-terminal amino acids of human IL-16] | – | – | inhibition of chemoattractant activity of murine IL-16 [4]: inhibit the chemoattractant activity; inhibition of chemoattractant activity of natural and recombinant human IL-16 [5]: inhibit the chemoattractant activity
9 | RSQRLK [SEQ ID NO:47, reference compound] | no inhibitory activity | – | –
10 | Arg^107 alone: rIL-16 point mutation Arg^107 to alanine (protein) SAASASAASDVSVESTAEATVCTVTLEKMSAGLGFSLEGGKGSLHGDKPLTINRIFKGAASEQSETVQPGDEILQLGGTAMQGLTRFEAWNIIKALPDGPVTIVIRAKSLQSKETTAAGDS | – | completely abrogated chemoattractant activity | –
11 | Arg^106 alone: rIL-16 point mutation Arg^106 to alanine (protein) SAASASAASDVSVESTAEATVCTVTLEKMSAGLGFSLEGGKGSLHGDKPLTINRIFKGAASEQSETVQPGDEILQLGGTAMQGLTRFEAWNIIKALPDGPVTIVIARKSLQSKETTAAGDS | – | retained full activity | –
12 | Arg^106 plus Arg^107: rIL-16 point mutation Arg^106 plus Arg^107 to alanine (protein) SAASASAASDVSVESTAEATVCTVTLEKMSAGLGFSLEGGKGSLHGDKPLTINRIFKGAASEQSETVQPGDEILQLGGTAMQGLTRFEAWNIIKALPDGPVTIVIAAKSLQSKETTAAGDS | – | completely abrogated chemoattractant activity | –
13 | native rIL-16: Recombinant human IL-16, 121 C-terminal amino acids of pro-IL-16, produced in E. coli (protein) SAASASAASDVSVESTAEATVCTVTLEKMSAGLGFSLEGGKGSLHGDKPLTINRIFKGAASEQSETVQPGDEILQLGGTAMQGLTRFEAWNIIKALPDGPVTIVIRRKSLQSKETTAAGDS | – | – | reduction of thymidine incorporation in MLR compared with untreated cells ([7]; pre-treatment with 10^-8 M, day 6): ~70%
14 | N-22: rIL-16 construct with deletion of 22 N-terminal amino acids (protein) TVTLEKMSAGLGFSLEGGKGSLHGDKPLTINRIFKGAASEQSETVQPGDEILQLGGTAMQGLTRFEAWNIIKALPDGPVTIVIRRKSLQSKETTAAGDS | – | comparable to native IL-16 | capacity to inhibit the MLR [7]: reduced but not eliminated
15 | C-16: rIL-16 mutant terminating at Ile^105, deleting RRKS and succeeding downstream residues (protein) SAASASAASDVSVESTAEATVCTVTLEKMSAGLGFSLEGGKGSLHGDKPLTINRIFKGAASEQSETVQPGDEILQLGGTAMQGLTRFEAWNIIKALPDGPVTIVI | – | completely eliminated the chemoattractant activity | shift of the dose response of MLR inhibition versus native rIL-16 [7]: ~1 log; capacity to inhibit the MLR [7]: nearly as active as native rIL-16
16 | C-12: rIL-16 mutant with deletion of 12 C-terminal residues, retaining the RRKS motif (protein) SAASASAASDVSVESTAEATVCTVTLEKMSAGLGFSLEGGKGSLHGDKPLTINRIFKGAASEQSETVQPGDEILQLGGTAMQGLTRFEAWNIIKALPDGPVTIVIRRKS | – | active as native rIL-16 | –
17 | N-12: rIL-16 construct with deletion of 12 N-terminal amino acids (protein) VESTAEATVCTVTLEKMSAGLGFSLEGGKGSLHGDKPLTINRIFKGAASEQSETVQPGDEILQLGGTAMQGLTRFEAWNIIKALPDGPVTIVIRRKSLQSKETTAAGDS | – | comparable to native IL-16 | capacity to inhibit the MLR [7]: reduced but not eliminated
